{"source": "paper PMC1616947", "about": "(Nucleic Acids Research, 2006)", "proteins": {"B1": {"name": "MutLΔC20 deletion mutant (domain or fragment, Escherichia coli, UniProt P23367 1-595, looked up)", "chain": "MPIQVLPPQLANQIAAGEVVERPASVVKELVENSLDAGATRIDIDIERGGAKLIRIRDNGCGIKKDELALALARHATSKIASLDDLEAIISLGFRGEALASISSVSRLTLTSRTAEQQEAWQAYAEGRDMNVTVKPAAHPVGTTLEVLDLFYNTPARRKFLRTEKTEFNHIDEIIRRIALARFDVTINLSHNGKIVRQYRAVPEGGQKERRLGAICGTAFLEQALAIEWQHGDLTLRGWVADPNHTTPALAEIQYCYVNGRMMRDRLINHAIRQACEDKLGADQQPAFVLYLEIDPHQVDVNVHPAKHEVRFHQSRLVHDFIYQGVLSVLQQQLETPLPLDDEPQPAPRSIPENRVAAGRNHFAEPAAREPVAPRYTPAPASGSRPAAPWPNAQPGYQKQQGEVYRQLLQTPAPMQKLKAPEPQEPALAANSQSFGRVLTIVHSDCALLERDGNISLLSLPVAERWLRQAQLTPGEAPVCAQPLLIPLRLKVSAEEKSALEKAQSALAELGIDFQSDAQHVTIRAVPLPLRQQNLQILIPELIGYLAKQSVFEPGNIAQWIARNLMSEHAQWSMAQAITLLADVERLCPQLVKTP"}}, "biological_target": "the molecule itself", "test": "SEC + AUC", "data": [{"protein": "B1", "values": [{"measurement": "stoichiometry N", "value": 2}]}]}
